Test results: paper doi:10.1101/2021.07.22.453398
Read-outs that look alike come from different tables or passages of the source.

Tests used:
[1] = target: bison NHA2ΔN (structural construct, tag removed by TEV) (Bison bison); assay: cryo-EM structure
[2] = target: bison NHA2ΔN (structural construct, tag removed by TEV) (Bison bison); assay: cryo-EM structure; remark: listed apart in the source

stoichiometry N [1]: 2
stoichiometry N [2]: 2
Substance: bison NHA2ΔN (structural construct, tag removed by TEV) (domain or fragment)
